According to US20120316071A1 (published 2012):

What was measured:
[1] = target: T1, Recombinant Human DLL4 (human, UniProt Q9NR61 27-524); experiment: ELISA on plate-coated DLL4, Fab at 2.22 nM (3-fold serial dilution)
T1 construct: Bought recombinant human DLL4 (R&D Systems 1506-D4/CF); also called delta-like protein 4; rHuman DLL4

[2] = target: T1, Recombinant Human DLL4; experiment: ELISA on plate-coated DLL4, Fab at 20 nM (3-fold serial dilution)
[3] = target: T1, Recombinant Human DLL4; experiment: ELISA on plate-coated DLL4, Fab at 0.74 nM (3-fold serial dilution)
[4] = target: T1, Recombinant Human DLL4; experiment: ECL (MSD) binding assay, Fab on immobilised recombinant human DLL4; Fab concentration not given in the table
[5] = target: T1, Recombinant Human DLL4; experiment: ELISA on plate-coated DLL4, Fab at 6.67 nM (3-fold serial dilution)
[6] = target: T2, Recombinant Human DLL4 (human, UniProt Q9NR61 27-524); experiment: ECL (MSD) 96-well plate assay, DLL4 coated at 15 ug/mL, Fab 0.02 uM; signal over blank
T2 construct: Bought recombinant human DLL4 (R&D Systems Cat#1506-D4/CF), coated on the plate; also called delta-like protein 4; rHuman DLL4

[7] = target: T2, Recombinant Human DLL4; experiment: ECL (MSD) 96-well plate assay, DLL4 coated at 30 ug/mL, Fab 0.1 uM; signal over blank

Row | Binder | ELISA signal [1] | ELISA signal [2] | ELISA signal [3] | ECL signal [4] | ELISA signal [5] | Signal/Noise [6] | Signal/Noise [7]
1 | Fab VH1-46_IGHD6-6*01_IGHJ1*01 S102A/S103P/S104F/H111F I51V/N52L/S54T/G56H & L6_IGKJ1*01 S28N/S30D/S31H (Fab, V domains shown, Fab expressed in E. coli: VH joined to CH1 from Plasmid A (His6 and Flag tags), VL joined to kappa CL from Plasmid C; also called H:APFF VLTH & L:NDH) VH: QVQLVQSGAEVKKPGASVKVSCKASGYTFTSYYMHWVRQAPGQGLEWMGIVLPTGHSTSYAQKFQGRVTMTRDTSTSTVYMELSSLRSEDTAVYYCAREEYAPFSAEYFQFWGQGTLVTVSS VL: EIVLTQSPATLSLSPGERATLSCRASQNVDHYLAWYQQKPGQAPRLLIYDASNRATGIPARFSGSGSGTDFTLTISSLEPEDFAVYYCQQRSNWPPWTFGQGTKVEIKR | 0.608 | 0.979 | 0.288 | 9790 | 0.776 | – | –
2 | Fab VH1-46_IGHD6-6*01_IGHJ1*01 S102A/S103P/S104F/H111F N52L/S54T/G56H & L6_IGKJ1*01 S28N/S30D/S31H (Fab, V domains shown, Fab expressed in E. coli: VH joined to CH1 from Plasmid A (His6 and Flag tags), VL joined to kappa CL from Plasmid C; also called H:APFF LTH & L:NDH) VH: QVQLVQSGAEVKKPGASVKVSCKASGYTFTSYYMHWVRQAPGQGLEWMGIILPTGHSTSYAQKFQGRVTMTRDTSTSTVYMELSSLRSEDTAVYYCAREEYAPFSAEYFQFWGQGTLVTVSS VL: EIVLTQSPATLSLSPGERATLSCRASQNVDHYLAWYQQKPGQAPRLLIYDASNRATGIPARFSGSGSGTDFTLTISSLEPEDFAVYYCQQRSNWPPWTFGQGTKVEIKR | 0.463 | 0.863 | 0.27 | 6020 | 0.739 | – | –
3 | Fab VH1-46_IGHD6-6*01_IGHJ1*01 S102A/S103P/S104F/H111F I51V/N52L/S54T/G56H & L6_IGKJ1*01 S28N/S30D/S31H S52L/A55S (Fab, V domains shown, Fab expressed in E. coli: VH joined to CH1 from Plasmid A (His6 and Flag tags), VL joined to kappa CL from Plasmid C; also called H:APFF VLTH & L:NDH LS) VH: QVQLVQSGAEVKKPGASVKVSCKASGYTFTSYYMHWVRQAPGQGLEWMGIVLPTGHSTSYAQKFQGRVTMTRDTSTSTVYMELSSLRSEDTAVYYCAREEYAPFSAEYFQFWGQGTLVTVSS VL: EIVLTQSPATLSLSPGERATLSCRASQNVDHYLAWYQQKPGQAPRLLIYDALNRSTGIPARFSGSGSGTDFTLTISSLEPEDFAVYYCQQRSNWPPWTFGQGTKVEIKR | 0.523 | 0.91 | 0.263 | 8000 | 0.747 | – | –
4 | Fab VH1-46_IGHD6-6*01_IGHJ1*01 S102A/S103P/S104F/H111F I51V/N52L/S54T/G56H & L6_IGKJ1*01 S28N/S30D/S31H S52L/A55G (Fab, V domains shown, Fab expressed in E. coli: VH joined to CH1 from Plasmid A (His6 and Flag tags), VL joined to kappa CL from Plasmid C; also called H:APFF VLTH & L:NDH LG) VH: QVQLVQSGAEVKKPGASVKVSCKASGYTFTSYYMHWVRQAPGQGLEWMGIVLPTGHSTSYAQKFQGRVTMTRDTSTSTVYMELSSLRSEDTAVYYCAREEYAPFSAEYFQFWGQGTLVTVSS VL: EIVLTQSPATLSLSPGERATLSCRASQNVDHYLAWYQQKPGQAPRLLIYDALNRGTGIPARFSGSGSGTDFTLTISSLEPEDFAVYYCQQRSNWPPWTFGQGTKVEIKR | 0.755 | 1.06 | 0.397 | 12200 | 0.916 | – | –
5 | Fab VH1-46_IGHD6-6*01_IGHJ1*01 S102A/S103P/S104F/H111F N52L/S54T/G56H & L6_IGKJ1*01 S28N/S30D/S31H S52L/A55S (Fab, V domains shown, Fab expressed in E. coli: VH joined to CH1 from Plasmid A (His6 and Flag tags), VL joined to kappa CL from Plasmid C; also called H:APFF LTH & L:NDH LS) VH: QVQLVQSGAEVKKPGASVKVSCKASGYTFTSYYMHWVRQAPGQGLEWMGIILPTGHSTSYAQKFQGRVTMTRDTSTSTVYMELSSLRSEDTAVYYCAREEYAPFSAEYFQFWGQGTLVTVSS VL: EIVLTQSPATLSLSPGERATLSCRASQNVDHYLAWYQQKPGQAPRLLIYDALNRSTGIPARFSGSGSGTDFTLTISSLEPEDFAVYYCQQRSNWPPWTFGQGTKVEIKR | 0.557 | 1.05 | 0.398 | 11500 | 0.916 | – | –

The next lines start with the values.

Row | ELISA signal [1] | ELISA signal [2] | ELISA signal [3] | ECL signal [4] | ELISA signal [5] | Signal/Noise [6] | Signal/Noise [7] | Binder
6 | – | – | – | – | – | 2 | 5.8 | Fab VH5-51_IGHD5-18*01>3_IGHJ4*01 G100D & V3-4_IGLJ1*01 (Fab, V domains shown, Fab; VH-CH1 (His6/Flag, Plasmid A) and VL-lambda CL (Plasmid E)) VH: EVQLVQSGAEVKKPGESLKISCKGSGYSFTSYWIGWVRQMPGKGLEWMGIIYPGDSDTRYSPSFQGQVTISADKSISTAYLQWSSLKASDTAMYYCARRDYSYGYDYFDYWGQGTLVTVSS VL: QTVVTQEPSFSVSPGGTVTLTCGLSSGSVSTSYYPSWYQQTPGQAPRTLIYSTNTRSSGVPDRFSGSILGNKAALTITGAQADDESDYYCVLYMGSGISYVFGTGTKVTVL
7 | – | – | – | – | – | 72.6 | 134 | Fab VH5-51_IGHD5-18*01>3_IGHJ4*01 G100K & V3-4_IGLJ1*01 (Fab, V domains shown, Fab; VH-CH1 (His6/Flag, Plasmid A) and VL-lambda CL (Plasmid E)) VH: EVQLVQSGAEVKKPGESLKISCKGSGYSFTSYWIGWVRQMPGKGLEWMGIIYPGDSDTRYSPSFQGQVTISADKSISTAYLQWSSLKASDTAMYYCARRKYSYGYDYFDYWGQGTLVTVSS VL: QTVVTQEPSFSVSPGGTVTLTCGLSSGSVSTSYYPSWYQQTPGQAPRTLIYSTNTRSSGVPDRFSGSILGNKAALTITGAQADDESDYYCVLYMGSGISYVFGTGTKVTVL
